The values below come from PMC10130748.

Assay [1] has as its target CD62P lectin domain R16E/K17E mutant.
Assay [2] has as its target CD62P (P-selectin) lectin domain (residues 1–117), wild type. The assay can be described thus: ELISA; wells coated with the CD62P lectin domain (WT, mutants, or lectin+EGF; 50 μg/ml where stated), blocked with BSA; soluble αvβ3 or αIIbβ3 (1 μg/ml) in HEPES-Tyrodes buffer with 1 mM MnCl2, 1 h, room temperature; bound integrin detected with anti-β3 mAb AV-10 and HRP anti-mouse IgG. A general note: ELISA stands for enzyme-linked immunosorbent assay.

Sequence of CD62P (P-selectin) lectin domain (residues 1–117), wild type (P16109 42-158): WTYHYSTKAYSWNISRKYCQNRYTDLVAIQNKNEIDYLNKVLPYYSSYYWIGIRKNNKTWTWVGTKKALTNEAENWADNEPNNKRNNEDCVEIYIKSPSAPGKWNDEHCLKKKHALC
Sequence of CD62P lectin domain R16E/K17E mutant (P16109 42-158 R57E/K58E): as the sequence (P16109 42-158) above, with R16E, K17E counted along it
Sequence of integrin αvβ3 on β3-CHO cells (P05106 whole entry, looked up): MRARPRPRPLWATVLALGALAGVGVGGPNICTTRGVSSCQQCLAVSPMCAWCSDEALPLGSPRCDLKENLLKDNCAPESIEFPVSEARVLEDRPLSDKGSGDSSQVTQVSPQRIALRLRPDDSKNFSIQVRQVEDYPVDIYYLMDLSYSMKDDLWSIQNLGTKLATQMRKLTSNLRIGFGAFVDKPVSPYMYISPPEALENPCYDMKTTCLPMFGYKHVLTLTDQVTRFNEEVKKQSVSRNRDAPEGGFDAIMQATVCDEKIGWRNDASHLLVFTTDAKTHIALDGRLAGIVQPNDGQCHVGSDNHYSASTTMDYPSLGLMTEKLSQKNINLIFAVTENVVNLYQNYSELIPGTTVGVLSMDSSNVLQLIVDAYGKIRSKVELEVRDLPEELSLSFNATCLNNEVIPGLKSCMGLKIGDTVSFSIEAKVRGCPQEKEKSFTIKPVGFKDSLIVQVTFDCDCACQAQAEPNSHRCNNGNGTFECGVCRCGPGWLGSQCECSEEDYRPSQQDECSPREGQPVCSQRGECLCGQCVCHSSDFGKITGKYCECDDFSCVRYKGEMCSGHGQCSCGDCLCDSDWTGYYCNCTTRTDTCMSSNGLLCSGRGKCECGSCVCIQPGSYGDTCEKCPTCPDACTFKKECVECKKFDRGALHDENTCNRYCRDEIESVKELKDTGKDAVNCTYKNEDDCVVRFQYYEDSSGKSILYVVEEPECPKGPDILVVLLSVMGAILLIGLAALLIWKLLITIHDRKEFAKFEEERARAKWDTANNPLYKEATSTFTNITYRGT

In the case of “integrin αvβ3 on β3-CHO cells (from UniProt P05106 27-788) (receptor)”, the static adhesion of β3-CHO cells to wells coated with the R16E/K17E lectin domain (50 μg/ml), Mg2+ buffer in assay [1] worked out at 60 % reduced. Take “soluble recombinant integrin αvβ3 (from UniProt P06756 31-1048; P05106 27-718) (receptor)”: the fold binding relative to the combined lectin and EGF-like domains in assay [2] is 2 fold.

For the substance “integrin α5β1 on parent CHO cells (receptor)”, in assay [1], the static adhesion of parent CHO cells to wells coated with the R16E/K17E lectin domain (50 μg/ml), Mg2+ buffer stood at 60 % reduced. Regarding “soluble recombinant integrin αIIbβ3 (from UniProt P08514 32-1039; P05106 27-718) (receptor)”, the fold binding relative to the combined lectin and EGF-like domains in assay [2] turned out to be 2 fold.
